Entries after “also recorded” stand apart in the source; their conditions may differ.

Assay [1] deals with T1, HGFRECD-c-Myc (extracellular domain of HGFR with c-Myc tag, expressed in HEK293T cells) (UniProt P08581 25-932).
T1 construct: extracellular domain; also called HGFRECD-c-Myc-tag; not shown: c-Myc tag
Kind of assay: co-IP with anti-c-Myc from transfected HEK293T cells (FIG. 1G).

The next assay relates to ADAM17 and presenilin 2. The experiment in a line: Western blotting of RIP proteins ADAM17 and presenilin 2 in HCT116 cells. The class given is cell-based, human. Particulars: 10 μg/ml 16 h, then EpEX-His 50 nM 15 min, FIG. 7E. As for the experimental part: FIGS. 7A to 7G. EpAb2-6 binds EpEX and induces apoptosis by F(ab′)2 and inhibits regulated intramembrane proteolysis (RIP) activation and HGFR signaling. (FIG. 7A) Binding affinity of IgG EpAb2-6 (mouse) and F(ab′)2 to EpEX-His (1 μg/ml) coated overnight was checked using ELISA (OD450). (FIG. 7B) HCT116 cells were treated with 100 μg/ml control IgG, Fc, or F(ab′)2 of EpAb2-6 for 24 h. The apoptotic and necrotic cells were quantified by fluorescein annexin V-FITC/PI double labeling. (FIG. 7C) HCT116 and HT29 cells were treated with 10 μg/ml control IgG, MT201, humanized EpAb2-6 (hEpAb2-6) or mouse hybridoma EbAb2-6 (mEpAb2-6) for 24 h. The apoptotic and necrotic cells were quantified by fluorescein annexin V-FITC/PI double labeling. (FIG. 7D) HCT116 cells were treated with 10 μg/ml control IgG, MT201, hEpAb2-6 or mEpAb2-6 for 16 h, followed by treatment with EpEX-His (50 nM) for 15 min. Levels of phosphorylated HGFR, AKT, and ERK, and (FIG. 7E) RIP proteins ADAM17 and presenilin 2 were examined by Western blotting. Anti-EpCAM antibody and crizotinib coordinately induces apoptosis in colon cancer cells. (FIG. 7F) HCT116 and HT29 cells were treated with 10 μg/ml NMIgG or EpAb2-6 and 4 μM HGFR inhibitor crizotinib for 24 h. The apoptotic and necrotic cells were quantified by fluorescein annexin V-FITC/PI double labeling. […] Cell invasion was assessed by a Transwell assay with matrigel after 24 h.
Whole cell extracts were prepared with RIPA buffer (50 mM Tris-HCl pH7.4, 1% NP-40, 0.5% Sodium deoxycholate, 0.1% SDS, 150 mM NaCl, 2 mM EDTA, 50 mM NaF). Protein concentrations of the cell lysates were determined by the Bradford assay. […]
Appropriate horseradish peroxidase-associated secondary antibodies (Millipore) were applied and the membranes were incubated at room temperature (RT) for 1 h. The protein bands were subsequently visualized with chemiluminescence reagents (Millipore) and detected on a BioSpectrum 600 Imaging system (UVP). The protein level was quantified from band intensity using Gel-Pro analyzer 3.1 (Media Cybernetics).

The test system of another assay is HCT116 cells. Kind of assay: Apoptosis assay, annexin V-FITC/PI double labeling, HCT116. The class given is cell-based, human. Particulars: 10 μg/ml 24 h, FIG. 7C. As for the experimental part: (§1) FIGS. 7A to 7G. EpAb2-6 binds EpEX and induces apoptosis by F(ab′)2 and inhibits regulated intramembrane proteolysis (RIP) activation and HGFR signaling. (FIG. 7A) Binding affinity of IgG EpAb2-6 (mouse) and F(ab′)2 to EpEX-His (1 μg/ml) coated overnight was checked using ELISA (OD450). (FIG. 7B) HCT116 cells were treated with 100 μg/ml control IgG, Fc, or F(ab′)2 of EpAb2-6 for 24 h. The apoptotic and necrotic cells were quantified by fluorescein annexin V-FITC/PI double labeling. (FIG. 7C) HCT116 and HT29 cells were treated with 10 μg/ml control IgG, MT201, humanized EpAb2-6 (hEpAb2-6) or mouse hybridoma EbAb2-6 (mEpAb2-6) for 24 h. The apoptotic and necrotic cells were quantified by fluorescein annexin V-FITC/PI double labeling. (FIG. 7D) HCT116 cells were treated with 10 μg/ml control IgG, MT201, hEpAb2-6 or mEpAb2-6 for 16 h, followed by treatment with EpEX-His (50 nM) for 15 min. Levels of phosphorylated HGFR, AKT, and ERK, and (FIG. 7E) RIP proteins ADAM17 and presenilin 2 were examined by Western blotting. Anti-EpCAM antibody and crizotinib coordinately induces apoptosis in colon cancer cells. (FIG. 7F) HCT116 and HT29 cells were treated with 10 μg/ml NMIgG or EpAb2-6 and 4 μM HGFR inhibitor crizotinib for 24 h. The apoptotic and necrotic cells were quantified by fluorescein annexin V-FITC/PI double labeling. (FIG. 7G) HCT116 and HT29 cells were treated with 10 μg/ml NMIgG or EpAb2-6 and 10 μM HGFR inhibitor crizotinib. Cell invasion was assessed by a Transwell assay with matrigel after 24 h.
(§2) Cells were seeded and treated with 10 μg/ml mAb or inhibitor for 6 h; an unrelated mouse myeloma immunoglobulin used at appropriate dilution served as the IgG2a (Invitrogen #02-6200) isotype control. Apoptotic cells were detected using Annexin V-FITC and PI, and were analyzed using a flow cytometer (BD Immmunocytometry Systems). Early apoptosis was measured with the Annexin V-FITC Apoptosis Detection kit II (BD Pharmingen). Late apoptotic nuclei were detected with propidium iodide (PI) staining.

For a further assay, the system named is HT29 cells. Kind of assay: Apoptosis assay, annexin V-FITC/PI double labeling, HT29. The class given is cell-based, human. As to conditions: 10 μg/ml 24 h, FIG. 7C. As for the experimental part:
as §1, §2

The next assay has as its system HGFR signaling. Kind of assay: Western blotting of phosphorylated HGFR, AKT, ERK, FAK in HCT116 cells. Particulars: HCT116; 10 μg/ml 16 h, then EpEX-His 50 nM 15 min; FIG. 7D. The class given is cell-based, human. The procedure: FIGS. 2A to 2K. EpEX promotes tumor progression via HGFR signaling. (FIG. 2A) WT or EpCAM knockout (KO) HCT116 and HT29 cells treated with HGF (0.5 nM) for 15 min. The phosphorylation of HGFR, AKT, and ERK was examined by Western blotting. (FIG. 2B) WT or KO HCT116 and HT29 cells were treated with HGF (0.5 nM) with 2% FBS for the indicated times. Cell growth was examined by the WST-1 assay. (FIG. 2C) Starved HCT116 cells were treated with HGFR inhibitor SU11274 (SU, 10 μM) for 1 h then treated with 50 nM of EpEX-His for 15 min. The levels of phosphorylated HGFR, EGFR, AKT, and ERK were examined by Western blotting. HCT116 and HT29 cells were treated with 50 nM EpEX and SU (10 μM). (FIG. 2D) Cell growth was examined by WST-1 assay after treatment for indicated time. (FIG. 2E) HCT116 cells were treated with shLuc or HGFR shRNA then treated with 50 nM of EpEX-His for 15 min. The levels of phosphorylated HGFR, EGFR, ERK, and AKT were examined in HGFR knockdown HCT116 cells by Western blotting. (FIG. 2F) The levels of phosphorylated ADAM17 and presenilin 2 were examined by Western blotting. (FIG. 2G) Active β-catenin nuclear translocation was assay by using Western blotting. (H) HCT116 cells were treated with shLuc or HGFR shRNA then treated with 50 nM of EpEX-His for indicated times. Cell growth was examined by the WST-1 assay. (FIG. 2I) HCT116 cells after shLuc and shHGFR treatment were treated with 50 nM of EpEX-His with 2% FBS for 7 days. Colony formation was examined by crystal violet staining.
FIGS. 6A to 6J. EpAb2-6 inhibits EpCAM and HGFR signaling and promotes active β-catenin and Snail protein degradation via activating GSK3β. (FIG. 6A) HCT116 cells were treated with 10 μg/ml control IgG (normal mouse IgG, NMIgG) or mouse EpAb2-6 (EpAb2-6) for 16 h, followed by treatment with EpEX-His (50 nM) for 15 min. Levels of phosphorylated HGFR, AKT, FAK, GSK3β, ERK, ADAM17, and presenilin 2 were examined by Western blotting. (FIG. 6B) HCT116 cells were treated with 10 μg/ml control IgG or mouse EpAb2-6 for 16 h, followed by treatment without or with HGF (0.5 nM) for 15 min. Levels of phosphorylated HGFR, AKT, and ERK were examined by Western blotting. HCT116 cells were treated with mouse EpAb2-6 (10 μg/ml) and HGF (0.5 nM). (FIG. 6C) Cell migration was examined by the wound healing assay at the indicated times. (FIG. 6D) Cell invasion was assessed by a Transwell assay with matrigel after 24 h. (FIG. 6E) HCT116 cells were treated with NMIgG or EpAb2-6 for 6 h and then immunoprecipitated with anti-EpCAM (IP: EpCAM) or anti-HGFR (IP: HGFR) antibodies, followed by Western blotting. (FIG. 6F) EpEX-His (2 μg/ml) co-treated with 1 μg IgG or EpAb2-6 was added to HGFR-Fc-coated (1 μg/ml) ELISA plates and detected by TMB colorimetric peroxidase assay. (FIG. 6G) EMT associated protein levels were detected by Western blotting in HCT116 cells treated with NMIgG or EpAb2-6 for 24 h. (FIG. 6H) Protein expression was analyzed by Western blotting in HCT116 cells after treatment with EpAb2-6 and 2 μM GSK3β inhibitor (BIO) for 24 h. Quantification of the normalized protein expression in the bottom panel. (FIG. 6I) HCT116 cells were treated with 10 μM MG132 and EpAb2-6 for 6 h before cell collection and subsequent Western blotting. (FIG. 6J) Stability of Snail protein in HCT116 cells treated with NMIgG or EpAb2-6. Cells were treated with cyclohexamide (CHX) 100 μg/ml at the indicated intervals and subjected to Western blotting.
FIGS. 7A to 7G. EpAb2-6 binds EpEX and induces apoptosis by F(ab′)2 and inhibits regulated intramembrane proteolysis (RIP) activation and HGFR signaling. (FIG. 7A) Binding affinity of IgG EpAb2-6 (mouse) and F(ab′)2 to EpEX-His (1 μg/ml) coated overnight was checked using ELISA (OD450). (FIG. 7B) HCT116 cells were treated with 100 μg/ml control IgG, Fc, or F(ab′)2 of EpAb2-6 for 24 h. The apoptotic and necrotic cells were quantified by fluorescein annexin V-FITC/PI double labeling. […]
(Immunoblotting shows a protein as a band on a membrane.)

The target in another assay is T2, EpCAM (Homo sapiens, UniProt P16422).
T2 sequence (P16422 24-314): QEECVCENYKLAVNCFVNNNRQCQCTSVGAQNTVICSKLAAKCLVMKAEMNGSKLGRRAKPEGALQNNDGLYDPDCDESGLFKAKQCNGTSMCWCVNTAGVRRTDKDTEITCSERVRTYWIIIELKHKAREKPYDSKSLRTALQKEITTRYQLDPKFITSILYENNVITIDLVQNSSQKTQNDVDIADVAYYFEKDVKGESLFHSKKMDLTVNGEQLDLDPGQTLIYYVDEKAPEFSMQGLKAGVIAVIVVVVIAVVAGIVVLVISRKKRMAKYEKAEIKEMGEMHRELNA
Particulars: other anti-EpCAM antibodies, comparison in the description; cited from earlier work.

The next assay relates to cancer cells. As to conditions: comparison in the description; previous work; cited from earlier work.

T1 sequence (P08581 25-932): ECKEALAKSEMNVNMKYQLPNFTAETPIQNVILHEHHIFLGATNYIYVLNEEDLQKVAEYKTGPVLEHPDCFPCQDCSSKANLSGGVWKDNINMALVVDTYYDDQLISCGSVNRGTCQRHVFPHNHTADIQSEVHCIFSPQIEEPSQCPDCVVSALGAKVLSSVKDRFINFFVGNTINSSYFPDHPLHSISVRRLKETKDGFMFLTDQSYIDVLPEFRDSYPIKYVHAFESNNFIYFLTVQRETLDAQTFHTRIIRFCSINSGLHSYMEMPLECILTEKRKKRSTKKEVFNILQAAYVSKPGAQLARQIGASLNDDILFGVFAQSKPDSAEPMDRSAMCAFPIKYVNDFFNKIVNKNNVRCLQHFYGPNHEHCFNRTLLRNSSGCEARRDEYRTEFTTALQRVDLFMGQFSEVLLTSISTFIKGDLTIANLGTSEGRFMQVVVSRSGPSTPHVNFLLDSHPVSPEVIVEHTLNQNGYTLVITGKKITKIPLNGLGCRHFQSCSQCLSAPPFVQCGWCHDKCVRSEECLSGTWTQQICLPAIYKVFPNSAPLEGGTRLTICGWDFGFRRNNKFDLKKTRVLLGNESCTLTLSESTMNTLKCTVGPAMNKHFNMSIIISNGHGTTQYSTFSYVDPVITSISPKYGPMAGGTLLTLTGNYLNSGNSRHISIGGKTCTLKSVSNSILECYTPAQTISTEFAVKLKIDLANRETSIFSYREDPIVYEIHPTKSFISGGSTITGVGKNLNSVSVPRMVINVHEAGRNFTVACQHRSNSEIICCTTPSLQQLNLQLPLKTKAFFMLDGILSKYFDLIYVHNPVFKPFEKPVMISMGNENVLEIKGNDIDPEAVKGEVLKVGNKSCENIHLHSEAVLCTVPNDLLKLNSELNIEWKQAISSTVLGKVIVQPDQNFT

B1: EpEXΔEGFII-His (ligand)
chain: QEECVCENYKLAVNCFVNNNRQCQCTSVGAQNTVICSKLAAKSERVRTYWIIIELKHKAREKPYDSKSLRTALQKEITTRYQLDPKFITSILYENNVITIDLVQNSSQKTQNDVDIADVAYYFEKDVKGESLFHSKKMDLTVNGEQLDLDPGQTLIYYVDEKAPEFSMQGLK
notes: EpEX lacking aa 66-135; also called EGF like-domain deletion mutant EpEX-His; soluble EpEX mutant protein; not shown: His tag
In the case of B1, the binding result in assay [1] is listed as “binds”.

B2: hEpAb2-6: humanized EpAb2-6 (antibody, V domains shown)
VH: VKLQESGPELKKPGETVKISCKASGYTFTDYSMHWVKQAPGKGLKWMGWINTETGEPTYADDFKGRFAFSLETSASTAYLQINNLKNEDTATYFCARTAVYWGQGTTVTVSS
VL: DIQMTQSPSSLSASLGERVSLTCRASQEISVSLSWLQQEPDGTIKRLIYATSTLDSGVPKRFSGSRSGSDYSLTISSLESEDFVDYYCLQYASYPWTFGGGTKLEIKRADAAPTVS
Turning to B2, in the assay with ADAM17 and presenilin 2, the “levels of phosphorylated ADAM17 and presenilin 2” value is “decreased”. Also, the apoptosis result with HCT116 cells and in the assay with HT29 cells was “inducing apoptosis” each time. Further, the “phosphorylation of HGFR, AKT, and ERK” value in the assay with HGFR signaling was “inhibited phosphorylation of HGFR, AKT, and ERK”.

B3: edrecolomab: other antibody targeting only the EGF I domain of EpCAM (antibody, chains of the INN, looked up, V domains shown)
VH: QVQLQQSGAELVRPGTSVKVSCKASGYAFTNYLIEWVKQRPGQGLEWIGVINPGSGGTNYNEKFKGKATLTADKSSSTAYMQLSSLTSDDSAVYFCARDGPWFAYWGQGTLVTVSA
VL: NIVMTQSPKSMSMSVGERVTLTCKASENVVTYVSWYQQKPEQSPKLLIYGASNRYTGVPDRFTGSGSATDFTLTISSVQAEDLADYHCGQGYSYPYTFGGGTKLEIK
In the case of B3, the EpCAM domains bound result with EpCAM is given as “target only the well-described EGF I domain of EpCAM; also recorded: binding to domain I only”. Further, in the assay with cancer cells, the “inducing apoptosis of cancer cells” value is given as “failing to”.

Source of the values: patent publication US20250269018A1, “COMBINED CANCER THERAPY WITH AN EPITHELIAL CELL ADHESION MOLECULE (EPCAM) INHIBITOR AND A HEPATOCYTE GROWTH FACTOR RECEPTOR (HGFR) INHIBITOR” (ACADEMIA SINICA, priority 2021, published 2025).
